Measured values: patent US20130196320A1, “METHOD FOR IMPROVING CLEAVAGE OF DNA BY ENDONUCLEASE SENSITIVE TO METHYLATION” (CELLECTIS, priority 2010, published 2013)
Where two headings read alike, the source gives them in different places.

What was measured:
C1221 DNA target = assay: In vitro cleavage assay with C1221 duplex, increasing meganuclease concentration; format: biochemical
Method: FIG. 2: In vitro cleavage of unmethylated or methylated C1221 by I-CreI. A constant amount of C1221 (50 nM) was incubated with increasing concentrations of I-CreI (0 to 2 μM) in reaction buffer (10 mM Tris-HCl, 150 mM NaCl, 10 mM MgCl2, pH8) for an hour at 37° C. The reaction was stopped and the remaining uncleaved C1221 was quantify and plotted as function of I-CreI concentration.
FIG. 3: In vitro cleavage of unmethylated or methylated C1221 by I-CreI D75N. 50 nM C1221 containing either 0, 1, 2 or 3 methylated CG was incubated with increasing concentrations of I-CreI D75N (0 to 2 μM) in reaction buffer (10 mM Tris-HCl, 150 mM NaCl, 10 mM MgCl2, pH8) for an hour at 37° C. The reaction was stopped and cleaved and uncleaved C1221 (top and bottom panel respectively) were quantify and plotted as function of I-CreI D75N concentration.
To investigate the influence of C1221 methylation on the nuclease activity of I-CreI, an in vitro cleavage assay with either unmethylated or fully methylated C1221 duplex (SEQ ID NOs: 4-5 and 12-13 respectively) was performed. A constant amount of C1221 duplex (50 nM) was incubated with increasing concentration of I-CreI (0 to 2 μM) in a total volume of 25 μL of reaction buffer (10 mM Tris-HCl, 150 mM NaCl, 10 mM MgCl2, pH8). Cleavage reaction was allowed to proceed 1 hour at 37° C. and then stopped by addition of 5 μL of 6× stop buffer (45% glycerol, 95 mM EDTA, 1.5% (w/v) SDS, 1.5 mg/mL proteinase K and 0.048% (w/v) bromophenol blue) followed by an hour incubation at 37° C. Cleaved and uncleaved DNA products were separated by PAGE using a TGX Any kD precast gel (Bio-Rad), stained with SYBR Green and then quantified using Quantity One software (Bio-Rad).
To investigate the influence of C1221 methylation on the nuclease activity of I-CreI D75N, in vitro cleavage assay with C1221 duplex containing either 0, 1, 2 or 3 methylated CG (SEQ ID NOs: 4-5, 6-7, 8-9, 10-11 respectively) was performed, according to the procedure described for I-CreI wild type.

C1234 DNA target = assay: In vitro binding assay, fluorescence anisotropy of fluorescein-labeled C1234 duplex
Method: FIG. 4: Spectrofluorimetric titration of fluorescein-labeled C1234 by I-Cre I wild type. 25 nM of C1234 duplex was incubated with increasing concentrations of I-Cre I [from 0 to 400 nM, only 0-80 nM shown] in binding buffer (10 mM Tris-HCl, 400 mM NaCl, 10 mM CaCl2, 10 mM DTT, pH8) at 25° C. After 30 minutes incubation, the fluorescence anisotropy of the mixture was recorded with a Pherastar Plus (BMG Labtech) operating in fluorescence polarization end point mode with excitation and emission wavelengths set to 495 and 520 nm respectively. Normalized fluorescence anisotropy is plotted as a function of active I-Cre I concentration. Apparent dissociation constant were determined by fitting raw data by an hyperbolic function (Ax=(A∞*[Meganuclease])/(Kd+[Meganuclease]) with Ax, the fluorescence anisotropy value obtained at a given meganuclease concentration, A∞, the fluorescence anisotropy value obtained at saturating concentration of meganuclease and Kd the dissociation constant of the equilibrium studied).
Fluorescein labeled C1234 oligonucleotides were synthesized and HPLC-purified by Eurogentec. To prepare C 1234 duplex corresponding to I-Cre I double strand DNA wild type target, C1234 forward (SEQ ID NO: 31, “a” strand below) labeled with Fluorescein on its 5′ end was mixed with 1 equivalent of C1234_reverse (SEQ ID NO: 32, “b” strand below) in 100 mM Tris-HCl, 50 mM EDTA, 150 mM NaCl, pH8. The mixture was heated to 95° C. for 2 min and then cooled down to 25° C. over 1 hour. C1234 duplex was eventually purified by anion exchange chromatography using a miniQ PE column (GE healthcare) pre-equilibrated with buffer A (20 mM Tris-HCl, pH7.4). Single stranded oligonucleotides and other contaminants were first discarded using a 0 to 360 mM NaCl step gradient and elution of pure C1234 duplex was performed with a 360-1000 mM NaCl linear gradient (5 column volumes). C 1234 duplex and fluorescein final concentrations were assessed by spectrophotometry using their respective extinction coefficients ε260nm=62900 M^−1 cm^−1 and ε495nm=83000 M^−1 cm^−1. As expected, a ratio [C1234 duplex]/[fluorescein]˜1 was obtained. The same procedure was used to prepare the different methylated forms of C 1234 duplex (C 1234_Me full composed of SEQ ID NO: 35+SEQ ID NO: 38, C1234_Me-6a/-5b composed of SEQ ID NO: 33+SEQ ID NO: 36, C1234_Me-3a/-2b composed of SEQ ID NO: 34+SEQ ID NO: 37, C1234_Me-3a composed of SEQ ID NO: 34+SEQ ID NO: 32, C1234_Me-2b composed of SEQ ID NO: 31+SEQ ID NO: 37, respectively where “a” and “b” designate each of the DNA strands; for example C1234 Me-6a/-5b is a duplex with methylations at position −6 on strand “a” and at position −5 on strand “b”, respectively) and the random target corresponding to a stretch of 12 GA repeats, (forward, SEQ ID NO: 39 and reverse, SEQ ID NO: 40). To investigate the binding of I-Cre I to C1234 duplex, 25 nM of C1234 duplex was incubated with increasing concentrations of I-Cre I (from 0 to 400 nM) in binding buffer (10 mM Tris-HCl, 400 mM NaCl, 10 mM CaCl2, 10 mM DTT, pH8) at 25° C. After 30 minutes incubation, the fluorescence anisotropy of the mixture was recorded with a Pherastar Plus (BMG Labtech) operating in fluorescence polarization end point mode with excitation and emission wavelengths set to 495 and 520 nm respectively. Apparent dissociation constants were determined by fitting raw data by an hyperbolic function (Ax=(A∞*[Meganuclease])/(Kd+[Meganuclease]) with Ax, the fluorescence anisotropy value obtained at a given meganuclease concentration, A∞, the fluorescence anisotropy value obtained at saturating concentration of meganuclease and Kd the dissociation constant of the equilibrium studied).

B1: I-CreI: wild-type I-CreI meganuclease (… homing endonuclease), SEQ ID NO: 1, recombinant Cterm His-tag (protein, listed as Chlamydomonas reinhardtii)
chain: MNTKYNKEFLLYLAGFVDGDGSIIAQIKPNQSYKFKHQLSLTFQVTQKTQRRWFLDKLVDEIGVGYVRDRGSVSDYILSEIKPLHNFLTQLQPFLKLKQKQANLVLKIIEQLPSAKESPDKFLEVCTWVDQIAALNDSKTRKTTSETVRAVLDSLSEKKKSSP
modifications: C-terminal His-tag
EC50 (C1221 DNA target; fully methylated C1221, 1 hour at 37° C., read-out: C50 (concentration of I-CreI needed to cleave 50% of C1221)): > 2000 nM
I-CreI concentration at which C1221 is totally cleaved (C1221 DNA target; unmethylated C1221): 250 nM
EC50 (C1221 DNA target; unmethylated C1221, 1 hour at 37° C., read-out: C50 (concentration of meganuclease needed to cleave 50% of C1221)): 100 nM
affinity compared with unmethylated C1234 (C1234 DNA target; C1234 Me-5b/-2b): much lower affinity
Kd (C1234 DNA target; C1234_Me full (fully methylated)): > 1000 nM
affinity for fully methylated C1234 lower than for unmethylated C1234 (C1234 DNA target; C1234_Me full vs unmethylated): at least 400 times
Kd (C1234 DNA target; C1234_Me-2b): 40.8 nM
Kd (C1234 DNA target; C1234_Me-5b): 24 nM
Kd (C1234 DNA target; C1234_Me-5b/-2b): > 1000 nM
Kd (C1234 DNA target; C1234_Me-6a/-3a): ≤ 2.5 nM
factor by which methylation affected affinity with respect to unmethylated C1234 (C1234 DNA target; C1234 methylated in position −2b): ≤ 10
factor by which methylation affected affinity with respect to unmethylated C1234 (C1234 DNA target; C1234 methylated in position −5b): ≤ 10
Kd (C1234 DNA target; unmethylated C1234): ≤ 2.5 nM
